# Where “and” joins values, the source holds several entries; their conditions need not be identical. Equal values may be shown once. Read-outs that look alike come from different tables or passages of the source.
# Experiments:
# [1] = for tolerability: 2f 15 mg/kg, 2i 15 mg/kg, 2h 25 mg/kg, 2a 30 mg/kg SN-38 equivalents, IV once weekly for three weeks
# [2] = patients to which irinotecan is administered; cited from earlier work
# [3] = tested on: HT-29 (human colon carcinoma cell line) xenograft; assay: Efficacy alone or in combination with olaparib in HT-29 xenograft model in mice; type: in vivo, Balb/c nude mice; settings: for Percent TGI: day 28; for effect on HT-29 tumour growth (in words): olaparib 50 mg/kg orally, irinotecan 80 mg/kg IV, their combination, 2f 5 and 8 mg/kg IV
# Description: Olaparib solid powder obtained from MedChemExpress was solubilised in DMSO and an oral formulation was prepared at a final concentration of 5 mg/ml in 10% DMSO: 15% (2-Hydroxypropyl)-β-cyclodextrin in sterile water.
# The endpoint for the analysis was a tumour volume of 1200 mm^3.
# Statistical analysis of tumour growth was performed on day 28 when the first study animals reached endpoint criteria for tumour burden.
# [4] = tested on: SW620 (human colon carcinoma cell line) xenograft; assay: Efficacy in SW620 xenograft model in mice; settings: for effect on SW620 tumour growth / tolerability: irinotecan 90 mg/kg; for effect on SW620 tumour growth: 2f 15, 2i 15, 2h 25, 2a 25 mg/kg IV days 1, 8, 15, study to day 119; for tolerability: 2f 15, 2i 15, 2h 25, 2a 25 mg/kg IV once weekly for three weeks
# [5] = tested on: MDA-MB-231 (human breast carcinoma cell line) xenograft; assay: Efficacy in MDA-MB-231 xenograft model in mice; type: in vivo, Balb/c nude mice; settings: irinotecan 90 mg/kg, 2f 15, 2h 25 mg/kg IV once weekly for three weeks
# [6] = tested on: HT-29 cells (human colon cancer cell line); assay: In-vitro anti-cancer drug screening, cell counting (SRB) assay; type: cell-based; settings: concentration required to inhibit net cell growth by 50%
# Description: A study was carried out to determine the ability of example dendrimers to inhibit growth of HT-29 cells (human colon cancer cell line) using a cell counting (SRB) assay.
# [7] = tested on: HT-29 (human colon carcinoma cell line) xenograft; assay: Efficacy in HT-29 xenograft model in mice; type: in vivo, Balb/c nude mice; settings: for Tumour growth inhibited: day 36, vs vehicle, irinotecan 90 mg/kg, 2f 15, 2i 15, 2h 25 mg/kg IV; for effect on HT-29 tumour growth: 2f 15, 2i 15, 2h 25 mg/kg SN-38 equivalents IV once weekly
# [8] = plasma release study (SN-38 release in rat plasma); type: in vitro ADME; settings: 37° C.
# [9] = SN-38 release from dendrimers in 9:1 PBS/DMA at 37° C. and pH 7.4; type: physicochemical; settings: SN-38 released, pH 7.4, 1 mg/mL dendrimer
# Description: A study was carried out to determine the rate of SN-38 release from certain dendrimeric compounds in 9:1 PBS (phosphate-buffered saline): DMA at 37° C. and pH 7.4.
# The PBS release study was conducted by preparing 1 mg/mL solutions of dendrimer in 9:1 v/v (PBS/DMA) immediately prior to incubation at 37° C. Samples were analysed at 6 h and 18 h and other timepoints by HPLC, comparing the % peak area of SN-38 to the % peak area of dendrimer construct. HPLC (C8 Xbridge, 3×100 mm), gradient: 5% ACN/H2O (0-1 min), 5-80% ACN (1-7 min), 80% ACN (7-12 min), 80-5% ACN (12-13 min), 5% ACN (13-15 min), 243 nm, 10 mM ammonium formate buffer, 0.4 mL/min.
# [10] = Single dose pharmacokinetic study in rats; settings: rat, single slow bolus IV
# [11] = tested on: CAPAN-1 (pancreatic cancer cell line) xenograft; assay: Efficacy in CAPAN-1 xenograft model in mice; type: in vivo
# [12] = tested on: HT-29 (human colon carcinoma cell line) xenograft; assay: Efficacy alone or in combination with cetuximab in HT-29 xenograft model in mice
# [13] = olaparib 50 mg/kg orally 5 days on/2 days off for 3 weeks, irinotecan 80 mg/kg IV days 1, 8, 15
# [14] = 15 mg/kg SN-38 equivalents IV once weekly for 3 weeks
# [15] = 20 mg/kg SN-38 equivalents IV once weekly for 3 weeks
# [16] = 30 mg/kg SN-38 equivalents IV once weekly for 3 weeks
# [17] = high dose 2f (approx. 16.5 mg/kg SN-38 equivalents)
# [18] = low dose 2f (approx. 1.3 mg/kg SN-38 equivalents)
# [19] = medium dose 2f (approx. 7.5 mg/kg SN-38 equiv)
compound,measurement,setting,value
"CCc1c2c(nc3ccc(OC(=O)N4CCC(N5CCCCC5)CC4)cc13)-c1cc3c(c(=O)n1C2)COC(=O)[C@]3(O)CC [Irinotecan, reference compound]",signs of toxicity,[1]; 100 mg/kg irinotecan,pale extremities and lethargy
same,"patients with early symptoms of gastrointestinal toxicity (diarrhea, emesis, diaphoresis, abdominal cramping)",[2],up to 80%
same,Percent TGI,[3]; [13],33%
same,effect on HT-29 tumour growth (in words),[3],moderate effect on tumour growth
same,effect on SW620 tumour growth,[4],"delay of tumour growth with the exception of one tumour, which completely regressed after day 25"
same,effect on MDA-MB-231 tumour growth,[5],continued to grow during drug treatment
same,GI50,[6]; Homo sapiens,7000 nM
same,Tumour growth inhibited,[7],23%
"O=C(c1cc(Cc2n[nH]c(=O)c3ccccc23)ccc1F)N1CCN(C(=O)C2CC2)CC1 [Olaparib, reference compound]",Percent TGI,[3]; [13],0%
same,effect on HT-29 tumour growth (in words),[3],no effect on tumour growth
"CCc1c2c(nc3ccc(O)cc13)-c1cc3c(c(=O)n1C2)COC(=O)[C@]3(O)CC [SN-38, reference compound]",GI50,[6]; Homo sapiens,< 10 nM
BHALys[Lys]32[α-DGA-C10-SN-38]32†[ε-PEG˜2300]32‡ [Dendrimer 2e],% SN-38 released,[8]; 0.5 h,30.58%
same,% SN-38 released,[8]; 2 h,57.54%
same,% SN-38 released,[8]; 4 h,67.96%
same,% SN-38 released,[8]; 6 h,75.16%
same,% SN-38 released,[8]; 22 h,95.38%
same,% Release at 6 h in 9:1 PBS/DMA at 37° C.,[9],64%
same,% Release at 18 h in 9:1 PBS/DMA at 37° C.,[9],71%
same,GI50,[6],< 10 nM
BHALys[Lys]32[α-DGA-C20-Irinotecan]32†[ε-PEG˜2300]32‡ [Dendrimer 2j],GI50,[6],12000 nM
BHALys[Lys]32[α-DGA-C20-SN-38]32†[ε-PEG˜2100]32‡ [Dendrimer 2f],Max. body weight loss (%),[1]; [14],4%
same,Max. body weight loss (%),[1]; [15],10%
same,Max. body weight loss (%),[1]; [16],22%
same,tolerability,[1],well tolerated
same,% SN-38 released,[8]; 0.5 h,5.06%
same,% SN-38 released,[8]; 2 h,24.56%
same,% SN-38 released,[8]; 4 h,45.36%
same,% SN-38 released,[8]; 6 h,61.81%
same,% SN-38 released,[8]; 22 h,95.61%
same,% Release at 6 h in 9:1 PBS/DMA at 37° C.,[9],24%
same,% Release at 18 h in 9:1 PBS/DMA at 37° C.,[9],55%
same,tumour growth and tumour regression versus irinotecan,"[3]; 2f 5 and 8 mg/kg vs irinotecan 80 mg/kg, P <0.0001",significantly inhibited tumour growth and prolonged tumour regression versus irinotecan
same,tumour regression versus olaparib,[3]; 2f 5 and 8 mg/kg vs olaparib 50 mg/kg,prolonged tumour regression versus olaparib
same,Percent TGI,"[3]; 5 mg/kg 2f IV days 1, 8, 15, alone or with olaparib 50 mg/kg orally",62%
same,Percent TGI,"[3]; 8 mg/kg 2f IV days 1, 8, 16, alone or with olaparib 50 mg/kg orally",94% and 97%
same,effect on HT-29 tumour growth (in words),[3],clear dose dependent repose with statistically significant inhibition of tumour growth
same,effect on SW620 tumour growth,[4],induce regression of SW620 tumours
same,tolerability,[4],well tolerated
same,effect on MDA-MB-231 tumour growth,[5],induce MDA-MB-231 tumour regression
same,GI50,[6],50 nM and 40 nM
same,effect on HT-29 tumour growth,[7],induce transient regression of HT-29 tumours
same,Tumour growth inhibited,[7],108%
same,"AUC0-∞, free SN-38",[10]; [17],"6,677 ng · hr/mL"
same,"Cmax, free SN-38",[10]; [17],289 ng/mL
same,"Cmax, total SN-38",[10]; [17],"306,500 ng/mL"
same,Free SN-38 at 120 hours,[10]; [17],10.8 ng/mL
same,Total SN-38 at 120 hours,[10]; [17],792.5 ng/mL
same,"AUC0-∞, free SN-38",[10]; [18],"1,196 ng · hr/mL"
same,"Cmax, free SN-38",[10]; [18],93 ng/mL
same,"Cmax, total SN-38",[10]; [18],"32,767 ng/mL"
same,Free SN-38 at 120 hours,[10]; [18],0.8 ng/mL
same,Total SN-38 at 120 hours,[10]; [18],111.5 ng/mL
same,"AUC0-∞, free SN-38",[10]; [19],"3,179 ng · hr/mL"
same,"Cmax, free SN-38",[10]; [19],164 ng/mL
same,"Cmax, total SN-38",[10]; [19],"150,334 ng/mL"
same,Free SN-38 at 120 hours,[10]; [19],3.7 ng/mL
same,Total SN-38 at 120 hours,[10]; [19],498 ng/mL
same,effect on CAPAN-1 tumour growth,[11]; administered intraperitoneally once weekly for three weeks,induces CAPAN-1 tumour regression
same,effect on CAPAN-1 tumour growth,[11]; administered intravenously once weekly for three weeks,induces CAPAN-1 tumour regression
same,survival versus cetuximab,[12]; 2f 10 and 5 mg/kg vs cetuximab 25 mg/kg,prolonged survival versus cetuximab
same,survival versus irinotecan,"[12]; 2f 10 and 5 mg/kg vs irinotecan 35 mg/kg, P<0.0001",significantly prolonged survival versus irinotecan
BHALys[Lys]32[α-Glu-C10-SN-38]32†[ε-PEG˜2300]32‡ [Dendrimer 2a],Max. body weight loss (%),[1]; 10 mg/kg SN-38 equivalents IV once weekly for 3 weeks,0%
same,Max. body weight loss (%),[1]; [16],10%
same,tolerability,[1],well tolerated
same,% SN-38 released,[8]; 0.5 h,1.59%
same,% SN-38 released,[8]; 2 h,4.47%
same,% SN-38 released,[8]; 4 h,7.57%
same,% SN-38 released,[8]; 6 h,11.28%
same,% SN-38 released,[8]; 22 h,42.46%
same,% Release at 6 h in 9:1 PBS/DMA at 37° C.,[9],9%
same,% Release at 18 h in 9:1 PBS/DMA at 37° C.,[9],38%
same,animals euthanized due to weight loss,"[4]; 2a 25 mg/kg IV days 1, 8, 15, group of 6",One animal from the 2a group was euthanized during the study due to weight loss on Day 99
same,effect on SW620 tumour growth,[4],induce regression of SW620 tumours
same,tolerability,[4],well tolerated
same,GI50,[6],130 nM
BHALys[Lys]32[α-Glu-C20-SN-38]32†[ε-PEG˜2300]32‡ [Dendrimer 2b],% SN-38 released,[8]; 0.5 h,0.93%
same,% SN-38 released,[8]; 2 h,1.27%
same,% SN-38 released,[8]; 4 h,1.94%
same,% SN-38 released,[8]; 6 h,2.73%
same,% SN-38 released,[8]; 22 h,12.17%
same,% Release at 6 h in 9:1 PBS/DMA at 37° C.,[9],0%
same,% Release at 18 h in 9:1 PBS/DMA at 37° C.,[9],3%
BHALys[Lys]32[α-TDA-C10-SN-38]32†[ε-PEG˜2100]32‡ [Dendrimer 2c],% SN-38 released,[8]; 0.5 h,20.52%
same,% SN-38 released,[8]; 2 h,38.32%
same,% SN-38 released,[8]; 4 h,48.79%
same,% SN-38 released,[8]; 6 h,53.42%
same,% SN-38 released,[8]; 22 h,69.8%
same,% Release at 6 h in 9:1 PBS/DMA at 37° C.,[9],54%
same,% Release at 18 h in 9:1 PBS/DMA at 37° C.,[9],55%
same,GI50,[6],30 nM
BHALys[Lys]32[α-TDA-C20-Irinotecan]32†[ε-PEG˜2100]32‡ [Dendrimer 2k],GI50,[6],46000 nM
BHALys[Lys]32[α-TDA-C20-SN-38]32†[ε-PEG˜2300]32‡ [Dendrimer 2d],% SN-38 released,[8]; 0.5 h,1.87%
same,% SN-38 released,[8]; 2 h,5.47%
same,% SN-38 released,[8]; 4 h,9.50%
same,% SN-38 released,[8]; 6 h,14.92%
same,% SN-38 released,[8]; 22 h,46.69%
same,% Release at 6 h in 9:1 PBS/DMA at 37° C.,[9],5%
same,% Release at 18 h in 9:1 PBS/DMA at 37° C.,[9],13%
same,GI50,[6],140 nM
BHALys[Lys]32[α-THF-C20-SN-38]32†[ε-PEG˜2300]32‡ [Dendrimer 2i],Max. body weight loss (%),[1]; [14],8%
same,Max. body weight loss (%),[1]; [15],15%
same,Max. body weight loss (%),[1]; [16],15%
same,tolerability,[1],well tolerated
same,% Release at 6 h in 9:1 PBS/DMA at 37° C.,[9],40%
same,% Release at 18 h in 9:1 PBS/DMA at 37° C.,[9],60%
same,effect on SW620 tumour growth,[4],induce regression of SW620 tumours
same,tolerability,[4],well tolerated
same,effect on HT-29 tumour growth,[7],induce transient regression of HT-29 tumours
same,Tumour growth inhibited,[7],103%
